Holding throughout (assay): BLI; Octet RED96; client biotinylated and loaded on streptavidin sensors; Spy or Spy variant in solution at 0.25, 0.5, 1, 1.5 and 2 μM; 40 mM HEPES, 150 mM NaCl, pH 7.5; Kd calculated as koff/kon
Common to all, as to details: both partners purified

Assay [1] addresses T1, Spy_(29-138) (UniProt P77754 52-161).
T1 construct: source: E. coli BL21 (DE3), purified (Ni-NTA, cation exchange, SEC); not shown: His6, N-terminal, cleaved; SUMO, N-terminal, cleaved
T1 sequence (looked up): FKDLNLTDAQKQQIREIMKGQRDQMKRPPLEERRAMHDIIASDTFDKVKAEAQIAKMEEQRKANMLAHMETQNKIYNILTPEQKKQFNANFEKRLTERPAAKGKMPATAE
The procedure, abridged:
(§1)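 Biolayer interferometry used an Octet RED96: client proteins biotinylated with EZ-link NHS-biotin (1:1 molar ratio) were loaded on streptavidin sensors, dipped into 40 mM HEPES, 150 mM NaCl, pH 7.5 containing Spy protein at 0.25, 0.5, 1, 1.5 and 2 μM, then moved to Spy-free buffer. Wavelength-shift association and dissociation curves were fitted in SigmaPlot 12.0, giving observed association rate and koff. kon came from observed rate versus Spy concentration; Kd was koff/kon.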

For assay [2], the target named is T2, Spy_(21-130) (UniProt P77754 44-153).
T2 construct: Spy chaperone, residues 21-130; source: E. coli BL21 (DE3), purified (Ni-NTA, cation exchange, SEC); not shown: His6, N-terminal, cleaved; SUMO, N-terminal, cleaved
T2 sequence (looked up): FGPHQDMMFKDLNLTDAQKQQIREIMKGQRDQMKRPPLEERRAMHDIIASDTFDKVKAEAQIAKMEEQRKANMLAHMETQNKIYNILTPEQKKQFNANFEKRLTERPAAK
The procedure, abridged:
as §1

For assay [3], the target named is T3, Spy_(24-124) (UniProt P77754 47-147).
T3 construct: source: E. coli BL21 (DE3), purified (Ni-NTA, cation exchange, SEC); not shown: His6, N-terminal, cleaved; SUMO, N-terminal, cleaved
T3 sequence (looked up): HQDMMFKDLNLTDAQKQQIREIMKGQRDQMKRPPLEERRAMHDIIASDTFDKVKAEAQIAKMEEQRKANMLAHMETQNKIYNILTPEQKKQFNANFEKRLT
The procedure, abridged: as §1

The target in assay [4] is T4, Spy_(27-124) (UniProt P77754 50-147).
T4 construct: source: E. coli BL21 (DE3), purified (Ni-NTA, cation exchange, SEC); not shown: His6, N-terminal, cleaved; SUMO, N-terminal, cleaved
T4 sequence (looked up): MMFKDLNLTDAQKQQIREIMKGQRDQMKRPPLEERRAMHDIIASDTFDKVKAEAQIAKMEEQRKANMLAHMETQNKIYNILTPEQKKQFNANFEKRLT
In outline: as §1

Assay [5] has as its target T5, Spy_(27-127) (UniProt P77754 50-150).
T5 construct: Spy chaperone, residues 27-127; source: E. coli BL21 (DE3), purified (Ni-NTA, cation exchange, SEC); not shown: His6, N-terminal, cleaved; SUMO, N-terminal, cleaved
T5 sequence (looked up): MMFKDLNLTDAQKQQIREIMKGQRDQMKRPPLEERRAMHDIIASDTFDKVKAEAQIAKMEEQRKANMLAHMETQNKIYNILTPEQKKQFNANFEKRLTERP
The procedure, abridged:
as §1

Assay [6] concerns the target T6, Spy_(21-127) (UniProt P77754 44-150).
T6 construct: Spy chaperone, residues 21-127; source: E. coli BL21 (DE3), purified (Ni-NTA, cation exchange, SEC); not shown: His6, N-terminal, cleaved; SUMO, N-terminal, cleaved
T6 sequence (looked up): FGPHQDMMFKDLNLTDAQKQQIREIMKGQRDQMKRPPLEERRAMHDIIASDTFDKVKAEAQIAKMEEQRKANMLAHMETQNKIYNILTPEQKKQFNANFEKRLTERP
In outline:
as §1

Assay [7] addresses T7, Spy wild type (Spy_(1-138)) (UniProt P77754 24-161).
T7 construct: Spy, ATP-independent periplasmic chaperone; also called WT; wt; source: E. coli BL21 (DE3), purified (Ni-NTA, cation exchange, SEC); not shown: His6, N-terminal, cleaved; SUMO, N-terminal, cleaved
T7 sequence (looked up): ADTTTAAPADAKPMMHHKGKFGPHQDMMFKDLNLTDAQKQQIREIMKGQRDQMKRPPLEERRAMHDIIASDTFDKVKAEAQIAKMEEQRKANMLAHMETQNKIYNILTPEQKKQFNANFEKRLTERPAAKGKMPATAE
The procedure, abridged: as §1

Assay [8] addresses T8, Spy_(24-130) (UniProt P77754 47-153).
T8 construct: Spy chaperone, residues 24-130; source: E. coli BL21 (DE3), purified (Ni-NTA, cation exchange, SEC); not shown: His6, N-terminal, cleaved; SUMO, N-terminal, cleaved
T8 sequence (looked up): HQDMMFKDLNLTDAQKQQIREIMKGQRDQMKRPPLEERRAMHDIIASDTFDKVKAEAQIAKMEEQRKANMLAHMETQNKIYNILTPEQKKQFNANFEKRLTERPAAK
In outline:
as §1

Usually Kd stands for the free concentration of one partner at which half of the binding sites on the other are occupied at equilibrium, for simple one-to-one binding.

B1: Im7 H40W L53A I54A (natural protein)
chain: MELKNSISDYTEAEFVQLLKEIEKENVAATDDVLDVLLEWFVKITEHPDGTDAAYYPSDNRDDSPEGIVKEIKEWRAANGKPGFKQG
modifications: biotin (EZ-link NHS-biotin, 1:1 molar ratio of biotin to protein)
notes: Im7 (colicin E7 immunity protein) with H40W L53A I54A; Spy was made with an N-terminal His6-SUMO tag that was cleaved; also called Im7AAW; partially folded client; source: purified by a similar procedure to Spy
As to B1, the Kd was 313 nM in assay [1]; 2490 nM in assay [2]; 1640 nM in assay [3]; 283 nM in assay [4]; 300 nM in assay [5]; 1980 nM in assay [6]. In addition, the figures for the Kd in assay [7] and in assay [8] were 643 nM and 1460 nM, respectively.

(Values after PMC9122904, “Insights into the client protein release mechanism of the ATP-independent chaperone Spy” (Nature Communications, 2022).)
